From PMC3702553 (2013)

B1: full length wild-type GST-SNX9 (sorting nexin 9) [not stated] / clathrin heavy chain (CHC) [human (endogenous in HeLa)] (parent complex)
chain 1: MATKARVMYDFAAEPGNNELTVNEGEIITITNPDVGGGWLEGRNIKGERGLVPTDYVEILPSDGKDQFSCGNSVADQAFLDSLSASTAQASSSAASNNHQVGSGNDPWSAWSASKSGNWESSEGWGAQPEGAGAQRNTNTPNNWDTAFGHPQAYQGPATGDDDDWDEDWDGPKSSSYFKDSESADAGGAQRGNSRASSSSMKIPLNKFPGFAKPGTEQYLLAKQLAKPKEKIPIIVGDYGPMWVYPTSTFDCVVADPRKGSKMYGLKSYIEYQLTPTNTNRSVNHRYKHFDWLYERLLVKFGSAIPIPSLPDKQVTGRFEEEFIKMRMERLQAWMTRMCRHPVISESEVFQQFLNFRDEKEWKTGKRKAERDELAGVMIFSTMEPEAPDLDLVEIEQKCEAVGKFTKAMDDGVKELLTVGQEHWKRCTGPLPKEYQKIGKALQSLATVFSSSGYQGETDLNDAITEAGKTYEEIASLVAEQPKKDLHFLMECNHEYKGFLGCFPDIIGTHKGAIEKVKESDKLVATSKITLQDKQNMVKRVSIMSYALQAEMNHFHSNRIYDYNSVIRLYLEQQVQFYETIAEKLRQALSRFPVM
chain 2: MAQILPIRFQEHLQLQNLGINPANIGFSTLTMESDKFICIREKVGEQAQVVIIDMNDPSNPIRRPISADSAIMNPASKVIALKAGKTLQIFNIEMKSKMKAHTMTDDVTFWKWISLNTVALVTDNAVYHWSMEGESQPVKMFDRHSSLAGCQIINYRTDAKQKWLLLTGISAQQNRVVGAMQLYSVDRKVSQPIEGHAASFAQFKMEGNAEESTLFCFAVRGQAGGKLHIIEVGTPPTGNQPFPKKAVDVFFPPEAQNDFPVAMQISEKHDVVFLITKYGYIHLYDLETGTCIYMNRISGETIFVTAPHEATAGIIGVNRKGQVLSVCVEEENIIPYITNVLQNPDLALRMAVRNNLAGAEELFARKFNALFAQGNYSEAAKVAANAPKGILRTPDTIRRFQSVPAQPGQTSPLLQYFGILLDQGQLNKYESLELCRPVLQQGRKQLLEKWLKEDKLECSEELGDLVKSVDPTLALSVYLRANVPNKVIQCFAETGQVQKIVLYAKKVGYTPDWIFLLRNVMRISPDQGQQFAQMLVQDEEPLADITQIVDVFMEYNLIQQCTAFLLDALKNNRPSEGPLQTRLLEMNLMHAPQVADAILGNQMFTHYDRAHIAQLCEKAGLLQRALEHFTDLYDIKRAVVHTHLLNPEWLVNYFGSLSVEDSLECLRAMLSANIRQNLQICVQVASKYHEQLSTQSLIELFESFKSFEGLFYFLGSIVNFSQDPDVHFKYIQAACKTGQIKEVERICRESNCYDPERVKNFLKEAKLTDQLPLIIVCDRFDFVHDLVLYLYRNNLQKYIEIYVQKVNPSRLPVVIGGLLDVDCSEDVIKNLILVVRGQFSTDELVAEVEKRNRLKLLLPWLEARIHEGCEEPATHNALAKIYIDSNNNPERFLRENPYYDSRVVGKYCEKRDPHLACVAYERGQCDLELINVCNENSLFKSLSRYLVRRKDPELWGSVLLESNPYRRPLIDQVVQTALSETQDPEEVSVTVKAFMTADLPNELIELLEKIVLDNSVFSEHRNLQNLLILTAIKADRTRVMEYINRLDNYDAPDIANIAISNELFEEAFAIFRKFDVNTSAVQVLIEHIGNLDRAYEFAERCNEPAVWSQLAKAQLQKGMVKEAIDSYIKADDPSSYMEVVQAANTSGNWEELVKYLQMARKKARESYVETELIFALAKTNRLAELEEFINGPNNAHIQQVGDRCYDEKMYDAAKLLYNNVSNFGRLASTLVHLGEYQAAVDGARKANSTRTWKEVCFACVDGKEFRLAQMCGLHIVVHADELEELINYYQDRGYFEELITMLEAALGLERAHMGMFTELAILYSKFKPQKMREHLELFWSRVNIPKVLRAAEQAHLWAELVFLYDKYEEYDNAIITMMNHPTDAWKEGQFKDIITKVANVELYYRAIQFYLEFKPLLLNDLLMVLSPRLDHTRAVNYFSKVKQLPLVKPYLRSVQNHNNKSVNESLNNLFITEEDYQALRTSIDAYDNFDNISLAQRLEKHELIEFRRIAAYLFKGNNRWKQSVELCKKDSLYKDAMQYASESKDTELAEELLQWFLQEEKRECFGACLFTCYDLLRPDVVLETAWRHNIMDFAMPYFIQVMKEYLTKVDKLDASESLRKEEEQATETQPIVYGQPQLMLTAGPSVAVPPQAPFGYGYTAPPYGQPQPGFGYSM

Variants of: B1
Test: GST pull-down, densitometry of immunoblots; lysates from asynchronously growing HeLa cells; 3-4 independent experiments; parent: 1; read off a plot

| ratio to parent | Variant |
| --- | --- |
| ~0.05 | chain 1 W165S |
| ~0.06 | chain 1 W108S, chain 1 W111S |

The next lines start with the variant.

| Variant | ratio to parent |
| --- | --- |
| chain 1 W108S | ~0.44 |
| chain 1 W165S, chain 1 W169S | ~0.29 |
